The source of these data is publication PMC11984302.

A value given as a limit tells only on which side of the number the result lay.

What all share (settings): SICS: thrombin in 1 M KCl (or 150 mM KCl), pH 7.5, 30 min incubation, 300 mV; gel: 16% Tris-Glycine; temperature not stated
Data set [1] addresses T1, thrombin (human plasma, Sigma-Aldrich) (Homo sapiens) (UniProt P00734+P00734). Briefly: single-molecule SICS nanopore.
The target of data set [2] is T1, thrombin (human plasma, Sigma-Aldrich) (Homo sapiens). Description: single-molecule SICS nanopore. The source holds these as a separate data set.
Data set [3] has the same target. Briefly: free translocation nanopore.

Consider “TCAGCTTGCGGAGATGCGATGGTTGGTGTGGTTGGATCGAGAAAAAGGTACGCCC / GGGCGTACCTTTTTCTCGATATCGCATCTCCGCAAGCTGA [extended TBA 1 in single-gap DNA carrier]”, for which the binding signal (% carriers with thrombin bound) is 52 in data set [1] and over 30 in data set [2]. In addition, the binding signal (% events with thrombin bound) in data set [3] came out at 14.1.
